What was measured:
Glu100 = Glu100 (UniProt position 101, ALGGKE-----); test: NMR
Asp44 = Asp44 (UniProt position 45, RNAKPDIKEDI); test: NMR
Glu47 = Glu47 (UniProt position 48, KPDIKEDIEYY); test: NMR
Glu6 = Glu6 (UniProt position 7, VDFAFELKKAQ); test: NMR
Asp87 = Asp87 (UniProt position 88, ALAVVDPGESR); test: NMR
Glu90 = Glu90 (UniProt position 91, VVDPGESRILA); test: NMR
Asp12 = Asp12 (UniProt position 13, LKKAQDTGKIV); test: NMR
Glu50 = Glu50 (UniProt position 51, IKEDIEYYAKL); test: NMR
Asp48 = Asp48 (UniProt position 49, PDIKEDIEYYA); test: NMR
Glu64 = Glu64 (UniProt position 65, PVYEFEGTSVE); test: NMR
Glu62 = Glu62 (UniProt position 63, GIPVYEFEGTS); test: NMR
Glu69 = Glu69 (UniProt position 70, EGTSVELGTLL); test: NMR
Asp2 = Asp2 (UniProt position 3, ---MVDFAFEL); test: NMR
[1] = target: Glu3 (position 3, ---GGEGG---); test: potentiometry
[2] = target: Asp3 (position 3, ---GGDGG---); test: potentiometry
[3] = 298 K, 5.4 M guanidine-HCl, not stated for the denatured samples, unfolded (guanidine-denatured)
[4] = 298 K, low ionic strength, 10 mM sodium citrate/phosphate, no added salt stated, folded (native)
[5] = 333 K, 5.4 M guanidine-HCl, not stated for the denatured samples, unfolded (guanidine-denatured)
[6] = 333 K, low ionic strength, 10 mM sodium citrate/phosphate, no added salt stated, folded (native)
[7] = 298 K, 5.4 M guanidine hydrochloride, free peptide in 5.4 M GdnHCl
[8] = 298 K, no added salt (peptide in nano-pure water), free peptide, no denaturant
[9] = 333 K, 5.4 M guanidine hydrochloride, free peptide in 5.4 M GdnHCl
[10] = 333 K, no added salt (peptide in nano-pure water), free peptide, no denaturant

Molecule: 50S ribosomal protein L30e, 5R->K variant (L30e*) (Thermococcus celer; R8K;R21K;R42K;R54K;R76K)
- pKa (Glu100; [3]): 4.19±0.02
- pKa (Glu100; [4]): 4.31±0.03
- pKa (Glu100; [5]): 4.06±0.02
- pKa (Glu100; [6]): 4.38±0.05
- pKa (Asp44; [3]): 3.62±0.01
- pKa (Asp44; [4]): 3.08±0.04
- pKa (Asp44; [5]): 3.52±0.02
- pKa (Asp44; [6]): 2.88±0.04
- pKa (Glu47; [3]): 4.17±0.02
- pKa (Glu47; [4]): 4.53±0.04
- pKa (Glu47; [5]): 4.00±0.02
- pKa (Glu47; [6]): 4.56±0.04
- pKa (Glu6; [3]): 4.17±0.02
- pKa (Glu6; [4]): 2.34±0.03
- pKa (Glu6; [5]): 4.00±0.02
- pKa (Glu6; [6]): 2.38±0.04
- pKa (Asp87; [3]): 3.54±0.02
- pKa (Asp87; [4]): 2.50±0.02
- pKa (Asp87; [5]): 3.47±0.02
- pKa (Asp87; [6]): 2.49±0.03
- pKa (Glu90; [3]): 4.16±0.02
- pKa (Glu90; [4]): 4.17±0.02
- pKa (Glu90; [5]): 4.02±0.03
- pKa (Glu90; [6]): 4.24±0.02
- pKa (Asp12; [3]): 3.56±0.02
- pKa (Asp12; [4]): 3.69±0.02
- pKa (Asp12; [5]): 3.46±0.02
- pKa (Asp12; [6]): 3.69±0.03
- pKa (Glu50; [3]): 4.16±0.02
- pKa (Glu50; [4]): 5.10±0.07
- pKa (Glu50; [5]): 4.02±0.03
- pKa (Glu50; [6]): 5.00±0.06
- pKa (Asp48; [3]): 3.56±0.02
- pKa (Asp48; [4]): 4.14±0.04
- pKa (Asp48; [5]): 3.46±0.02
- pKa (Asp48; [6]): 4.24±0.04
- pKa (Glu64; [3]): 4.17±0.02
- pKa (Glu64; [4]): 4.10±0.06
- pKa (Glu64; [5]): 4.00±0.02
- pKa (Glu64; [6]): 4.06±0.07
- pKa (Glu62; [3]): 4.19±0.02
- pKa (Glu62; [4]): 3.20±0.06
- pKa (Glu62; [5]): 4.03±0.02
- pKa (Glu62; [6]): 3.30±0.06
- pKa (Glu69; [3]): 4.19±0.02
- pKa (Glu69; [4]): 3.79±0.03
- pKa (Glu69; [5]): 4.01±0.03
- pKa (Glu69; [6]): 3.82±0.03
- pKa (Asp2; [3]): 3.62±0.01
- pKa (Asp2; [4]): 3.13±0.04
- pKa (Asp2; [5]): 3.53±0.02
- pKa (Asp2; [6]): 3.09±0.05

Molecule: GGEGG [Model pentapeptide Ac-GGEGG-NH2 (synthetic)]
- pKa [1, 7]: 4.18±0.04
- pKa [1, 8]: 4.17±0.03
- pKa [1, 9]: 4.10±0.02
- pKa [1, 10]: 4.10±0.01

Molecule: GGDGG [Model pentapeptide Ac-GGDGG-NH2 (synthetic)]
- pKa [2, 7]: 3.70±0.01
- pKa [2, 8]: 3.69±0.03
- pKa [2, 9]: 3.64±0.02
- pKa [2, 10]: 3.61±0.02

Reference: article PMC3261180
